Reference: patent US7626003B2, “Genetically engineered cDNA of rat bcl-x gene and an improved protein” (priority 1999, dated 2009)

Key:
[1] = tested on: human leukemia cell line Jurkat; assay: Resistance of Jurkat transfectants to heat treatment (trypan blue exclusion); type: cell-based; conditions: 45° C. for 10 minutes (FIG. 12)
[2] = tested on: human leukemia cell line Jurkat; assay: Resistance of Jurkat transfectants to anti-Fas antibody (trypan blue exclusion); type: cell-based; conditions: anti-Fas antibody CH-11 1-1000 ng/ml, 1 day (FIG. 4)
Method: The results are shown in FIG. 4, wherein the number of the cells incubated without the antibody was taken as 100%.

[3] = tested on: Chinese hamster ovary cell CHO; assay: Incubation of CHO transfectants in serum-free medium; type: cell-based
Method: The CHO cells (1×10^5 cells) were suspended in culture medium DMEM/F-12 (GIBCO BRL) containing 10% fetal bovine serum, and incubated in a 60-mm dish overnight. The linearized pEF1-BOSbcl-xY22F/Q26N/R165K (10 μg) and the linearized pST-neoB (0.5 μg) having a drug Geneticin-resistant gene were introduced into the CHO cells using a SuperFect Transfection Reagent kit (Qiagen). As a control, the linearized empty vector pEF1-BOS or the linearized pEF1-BOSbcl-x were introduced together with the linearized pST-neoB into the CHO cells. After the transfection treatment, the cells were incubated in culture medium DMEM/F-12 containing 10% fetal bovine serum overnight. Geneticin (700 μg/ml) was added, and the incubation was continued to yield the transfected cells. In the same manner as in Example 3, the transfectants expressing the improved protein Bcl-xFNK or the wild-type Bcl-xL abundantly and to the same level were selected. Thus, CHObcl-x, CHObcl-xFNK, and CHOvec (transfected with the empty vector) were obtained.
Three transfectants, CHObcl-x, CHObcl-xFNK, and CHOvec, prepared in Example 6 were incubated in culture medium DMEM/F-12 containing 10% fetal bovine serum. The cells (1×10^3 cells) were plated in a 100-mm dish containing the medium DMEM/F-12 containing 3% fetal bovine serum. […]

[4] = tested on: murine premyeloid cell line FDC-P1; assay: Resistance of FDC-P1 transfectants to TN-16 and staurosporine (WST-1 assay); type: cell-based; conditions: TN-16 50 μM
Method: (§1) For the transfectant FDC-P1bcl-xFNK cells prepared in Example 2, the resistance was examined to a variety of apoptosis-inducing stimuli. In these figures, the empty marks, ⋄, □, Δ, ∇, and ◯ represent 5 independent transfectants, FDC-P1bcl-xFNK-1, -2, -3, -4, and -5, respectively. […] The mark ▪ represents FDC-P1vec in which the empty vector plasmid DNA has been introduced.
The cells were suspended in culture medium at 2×10^5 cells/ml, to which TN-16 (50 μM) and staurosporine (10 nM) was then added. The dehydrogenase activity of the cells (100 μl of the culture broth) was determined daily using the Cell Counting Kit (Dojin Chemical) and WST-1 as a substrate (WST-1 Assay). The enzyme activity was taken as 100% immediately before addition of the agents.

[5] = tested on: human leukemia cell line Jurkat; assay: Dehydrogenase activity of Jurkat transfectants after heat treatment (WST-1 assay); type: cell-based; conditions: 45° C. for 10 minutes, 1st day (FIG. 13)
Method: The cells were harvest by centrifugation, then suspended in an equal amount of the fresh culture medium, and incubated at 37° C. In addition, dehydrogenase activities of the cells (100 μl of the culture broth) were determined at 1st day using the Cell Counting Kit (Dojin Chemical) and WST-1 as a substrate (WST-1 Assay). The results are shown in FIG. 13, wherein the enzyme activity of the cells without heat treatment was taken as 100%.

[6] = tested on: human leukemia cell line Jurkat; assay: Resistance of Jurkat transfectants to apoptosis induced by serum withdrawal (trypan blue exclusion); type: cell-based; conditions: serum-free RPMI1640, surviving cells counted daily (FIG. 3)
Method: The cells were washed 3 times with PBS and suspended in RPMI1640 medium containing no serum at 1×10^5 cells/ml. […] The number of the cells was carefully controlled to be less than 5×10^5 cells/ml. When the cell number was expected to exceed the limitation, the culture medium was diluted 2 fold. Every 3 days, the half of the serum-free medium was replaced with the fresh medium.

[7] = tested on: murine premyeloid cell line FDC-P1; assay: Resistance of FDC-P1 transfectants to apoptosis induced by depletion of the cytokine IL-3; type: cell-based
Excerpt: as §1
The result are shown in FIG. 16, in which the number of the surviving cells immediately after depletion of IL-3 was taken as 100%. In this experiment, the cells other than FDC-P1vec were diluted 5 times with the fresh medium containing no IL-3 every 3rd day.

[8] = tested on: human leukemia cell line Jurkat
Method: For the transfected Jurkatbcl-xFNK cells prepared in Example 2, the resistance (non-sensitivity) to a variety of apoptosis-inducing stimuli was examined.
The cells were suspended in RPMI1640 medium at 1×10^5 cells/ml, to which staurosporine (20 nM), TN-16 (10 μM), camptothecin (10 μM), hydroxyurea (1 mM), trichostatin A (0.25 μg/ml), hydrogen peroxide (0.05 mM), or paraquat (1 mM) was then added. And the cells were incubated. The surviving cells were counted by the trypan blue exclusion everyday.

HeLa cells = assay: Incorporation of TAT-Bcl-xFNK protein in cells (immunofluorescence); type: cell-based; conditions: 1 μM in medium, 24 hours, FITC immunofluorescence (FIG. 18)
Method: TAT-Bcl-xFNK protein (1 μM) was added to DMEM/F-12 (Life Technologies) containing 10% FBS (fetal bovine serum), a medium for HeLa cells cultured in a Slide Chamber (Lab-Tek), and the cells were incubated in a CO2 incubator for 24 hours. The cells were then washed twice with PBS. The cells were fixed with paraformaldehyde (4%) dissolved in PBS at room temperature for 45 min. The cells were washed 3 times with PBS (5 minutes/round), and incubated in PBS containing 10% FBS for 20 min. The cells were washed 3 times with PBS (5 minutes/round), and treated with 1.5% FBS-PBS solution containing an anti-rat Bcl-xL monoclonal antibody 35-32 (murine origin) for 30 min. The cells were washed 3 times with PBS (5 minutes/round), and treated with 1.5% FBS-PBS solution containing an anti-mouse IgG antibody conjugated with FITC, for 30 minutes. The cells were washed 3 times with PBS (5 minutes/round), mounted in PBS, and sealed to observe under a fluorescence microscope.

hepatocytes = assay: Inhibition of the death of hepatocytes caused by steroid hormone (dexamethasone) in mice; type: in vivo; conditions: mouse, 100 μg intraperitoneal 3 hours before 0.5 mg dexamethasone i.p., liver sections 3 hours later (FIGS. 25-27)
Method: Three 8-week old mice ([…], 20 g body weight, female) were divided into 3 groups (A, B and C). To the mouse of Group A was intraperitonealy administered PBS solution (0.8 ml) containing 100 μg of TAT-Bcl-xFNK protein (prepared from the soluble fraction). To the mice of Group B and Group C (control) was intraperitonealy administered PBS (0.8 ml) in the same manner. The mice were put back into cages, and after a lapse of 3 hours 0.5 ml of 25% ethanol/PBS solution containing 0.5 mg of a steroid hormone (dexamethasone) was intraperitonealy administered to the mice of Group A and Group B. To the mouse of Group C was intraperitonealy administered 0.5 ml of 25% ethanol/PBS solution. They were put back into cages, and after a lapse of 3 hours killed. Their livers were taken out, and frozen to prepare frozen sections with a cryostat. The sections were stained with hematoxylin-eosin to evaluate the death of hepatocyte.

[9] = tested on: chondrocyte of cartilage slice from Osteoarthritis patients; assay: Cell death-inhibiting activity in chondrocytes of cartilage slice culture; type: cell-based, human; conditions: 0.2 μM in culture medium, up to day 9, hematoxylin-eosin (FIGS. 19-24)
Method: Cartilage was obtained from the femoral bone head of Osteoarthritis patients undergoing total hip arthroplasty. The cartilage tissue above the subchondral bone (10×10 mm; 1.2 mm in thickness) was aseptically sliced using a single-edged razor. The cartilage slice was placed in a 24-well plate and incubated with a DMEM/Ham F-12 mixed medium (Life Technologies) containing 20% FBS (fetal bovine serum) at 37° C. in a CO2 incubator. For a comparative experiment, the expression vector of TAT-Bcl-xL was constructed in the same manner as TAT-Bcl-xFNK, and TAT-Bcl-xL protein was partially purified from Escherichia coli (TAT-Bcl-xL preparation has the same purity). TAT-Bcl-xFNK (prepared from the inclusion body) or TAT-Bcl-xL (prepared from the inclusion body) were added to the culture medium at a concentration of 0.2 μM. As a control, an equal amount of PBS (a solvent used to solubilize the proteins) containing 7M urea and 1 mM DTT was added. The culture medium containing the protein was changed on day 4 and day 7. After incubation for 4 days and 9 days, the cartilage slice was frozen to prepare frozen sections using a cryostat. The sections were stained with hematoxylin-eosin to evaluate the death of chondrocyte.

Row | Molecule | resistance of transfected cells to heat treatment [1] | resistance of transfected cells to anti-Fas antibody [2] | growth of transfected CHO cells in serum-free medium ([3]; DMEM/F-12 lacking serum from day 6, another 6 days (FIG. 17)) | dying or dead cells in colonies in serum-free medium ([3]; compared with CHObcl-x expressing Bcl-xL (FIG. 17)) | resistance of transfected cells to TN-16 and staurosporine ([4]; FDC-P1 transfectants (5 independent), staurosporine 10 nM (FIGS. 14, 15)) | dehydrogenase activity under TN-16 and staurosporine (WST-1) ([4]; FDC-P1 transfectants, staurosporine 10 nM, daily) | dehydrogenase activity after heat treatment (WST-1) [5] | survival of transfected cells after serum withdrawal [6] | growth in the absence of IL-3 ([7]; medium without IL-3) | resistance to apoptosis induced by depletion of IL-3 ([7]; medium without IL-3 but with serum (FIG. 16)) | resistance of transfected cells to cytotoxic drugs [8] | incorporation of the protein into cells (HeLa cells) | inhibition of degeneration of hepatic tissue and cell death caused by dexamethasone (hepatocytes) | inhibition of the death of chondrocyte [9]
1 | Bcl-xFNK: improved protein of rat Bcl-xL, SEQ ID NO: 3, with substitutions Tyr22Phe; Gln26Asn; Arg165Lys (protein, Artificial Sequence Modified Protein of SEQ ID NO 2, Gln26Asn; Arg165Lys) MSQSNRELVVDFLSYKLSQKGFSWSNFSDVEENRTEAPEETEPERETPSAINGNPSWHLADSPAVNGATGHSSSLDAREVIPMAAVKQALREAGDEFELRYRRAFSDLTSQLHITPGTAYQSFEQVVNELFRDGVNWGRIVAFFSFGGALCVESVDKEMQVLVSKIASWMATYLNDHLEPWIQENGGWDTFVDLYGNNAAAESRKGQERFNRWFLTGMTVAGVVLLGSLFSRK | high resistance to heat treatment | high resistance to the highly concentrated anti-Fas antibody | grew far better than CHOvec | fewer cells were dying or dead | high resistance to treatment with TN-16 and staurosporine | maintained at high level | maintained at high level even after heat treatment | survived for a longer period than the wild-type Bcl-xL-expressing cells | could grow even in the absence of IL-3 | higher resistance than the transfectant expressing the wild-type Bcl-xL | high resistance to all of the cytotoxic drugs tested | – | – | –
2 | Bcl-xL: wild-type protein expressed from the rat bcl-x gene, SEQ ID NO: 2 (protein, listed as Rattus norvegicus) MSQSNRELVVDFLSYKLSQKGYSWSQFSDVEENRTEAPEETEPERETPSAINGNPSWHLADSPAVNGATGHSSSLDAREVIPMAAVKQALREAGDEFELRYRRAFSDLTSQLHITPGTAYQSFEQVVNELFRDGVNWGRIVAFFSFGGALCVESVDKEMQVLVSRIASWMATYLNDHLEPWIQENGGWDTFVDLYGNNAAAESRKGQERFNRWFLTGMTVAGVVLLGSLFSRK | – | – | – | – | – | – | – | survived longer than the control parent cells and the vector-transfected cells | – | – | – | – | – | –
3 | TAT-Bcl-xFNK: Bcl-xFNK in which a protein-transduction-domain peptide of HIV TAT protein is fused at the N-terminal (protein) YGRKKRRQRRRMSQSNRELVVDFLSYKLSQKGFSWSNFSDVEENRTEAPEETEPERETPSAINGNPSWHLADSPAVNGATGHSSSLDAREVIPMAAVKQALREAGDEFELRYRRAFSDLTSQLHITPGTAYQSFEQVVNELFRDGVNWGRIVAFFSFGGALCVESVDKEMQVLVSKIASWMATYLNDHLEPWIQENGGWDTFVDLYGNNAAAESRKGQERFNRWFLTGMTVAGVVLLGSLFSRK | – | – | – | – | – | – | – | – | – | – | – | has passed through the cellular membrane and has been incorporated in the cells | markedly inhibited | inhibits the death of chondrocyte more strongly than TAT-Bcl-xL
